Experimental data: patent US20160136272A1, “METHODS FOR RESTORING CORTICOSTEROID SENSITIVITY” (priority 2013, published 2016)

Key:
PBMC = experiment: IP-10 production by donor PBMC in response to dsRNA and drug combinations (ELISA); format: cell-based, human; settings: for IP-10 production in response to polyIC, antibody combined with methotrexate, dexamethasone or Humira / IP-10 production in response to polyAU, antibody combined with methotrexate, dexamethasone or Humira: antibody 50 μg/ml plus dose range of drug; for IP-10 production in response to polyIC, antibody combined with methotrexate, dexamethasone or Humira / IP-10 production in response to polyIC: 30 μg/ml poly(I:C); for IP-10 production in response to polyIC, antibody combined with methotrexate, dexamethasone or Humira: donors 1 and 2; for IP-10 production in response to polyAU, antibody combined with methotrexate, dexamethasone or Humira: 300 μg/ml IPH3102, donor 2; for IP-10 production in response to polyIC / IP-10 production in response to polyAU: antibody 50 μg/ml; for IP-10 production in response to polyIC: 24 h, human donors 1 and 2; for IP-10 production in response to polyAU: 300 μg/ml IPH3102, 24 h, human donor 2
Protocol: IP-10 production was assessed in human donors in response to polyAU (IPH3102), believed to be a specific agonist of TLR3, or plC, believed to be an agonist of TLR3 as well as other dsRNA receptors such as RIG-I and MDA-5. Fresh PBMC were isolated from whole blood of two independent donors. 1.5×10^6 (donor #1) and 3×10^6 (donor #2) PBMC per ml were incubated in flat-bottom 96W plates in the presence of 50 μg/ml 31C3 or 34A3 anti-human TLR3 mAbs and a dose range of methotrexate (300, 30 and 3 μg/ml), dexamethasone (200, 20, 2 μg/ml) or Humira® (100, 10, 1 μg/ml). Cells were incubated 1 hr at 37° C. prior addition of 300 μg/ml IPH3102 or 30 μg/ml poly(I:C). Cells were incubated for 24 additional hours at 37° C. Supernatant were then harvested to quantify IP10 production by ELISA. Cells were then recovered, stained with 7-AAD and analyzed by flow cytometry (FACS) to evaluate potential toxic effects of any drugs.

BEAS-2B cell line = experiment: IL-6 and IP-10 production by BEAS-2B cells in response to polyAU (ELISA); format: cell-based, human; settings: 300 μg/ml IPH3102, 24 h
Protocol: IL-6 and IP-10 production was assessed in PBMC and virus-transformed lung epithelial BEAS-2B cell line in response to high molecular weight polyAU (IPH3102), a specific agonist of TLR3. Experiments with BEAS-2B were performed in Bronchial Epithelial Growth Medium (Lonza, #CC-3170). 2×10^4 BEAS-2B per well were plated in flat-bottom 96W plates in 100 μl culture medium and incubated over night at 37° C. A part of the cells was treated for 24-supplemental hours with 1000 UI/ml Intron A (Schering Plough, IFN-alpha 2b). Medium was discarded and 37B7 anti-human TLR3 Ab (0.01 and 0.1 μg/ml in the condition without Intron A and 0.01 and 0.3 μg/ml after treatment with Intron A) was added to the culture. Cells were incubated 30 min at 37° C. prior addition of Dexamethasone (1, 0.1, 0.01, 0.001 μg/ml in the condition […] and 10, 1, 0.1, 0.01 μg/ml after treatment with Intron A) or Budesonide (1, 0.1, 0.01, 0.001 μg/ml). Cells were incubated 30-additional min at 37° C. before addition of 300 μg/ml IPH3102. Cells were finally incubated for 24-additional hours and supernatants were harvested to quantify IL-6 and IP-10 production by ELISA.

B1: 31C3: anti-human TLR3 mAb, cell deposited as 31C3.1, CNCM I-4186; VH/VL SEQ ID NO 75/76 (antibody, listed as Mus musculus, V domains shown)
VH: MGWSWIFLFLLSGTAGVLSEVQLQQSGPELVKPGASVKISCKPSGYSFTAYYMHWVKQSHVKSLEWIGRINPYNGATSYNRNFKDKASLTVDKSSSTAYMELHSLTSEDSAVYYCARSGGNTYFDYWGQGTTLTVS
VL: MSVPTQVLGLLLLWLTGARCDIQMTQSPASLSASVGETVTITCRASENIYSSLAWYQQKQGKSPQLLVYNAKTLAEGVPSRFSGSGSGTQFSSLKINSLQPEDFGTYYCQHHYGTPPTFGGGTKLEIK
- IP-10 production in response to polyIC, antibody combined with methotrexate, dexamethasone or Humira (PBMC): reduce IP-10 further
- IP-10 production in response to polyAU, antibody combined with methotrexate, dexamethasone or Humira (PBMC): reduce IP-10 further
- IP-10 production in response to polyIC (PBMC): substantially reduce IP-10 production
- IP-10 production in response to polyAU (PBMC): substantially reduce IP-10 production

B2: 34A3: anti-human TLR3 mAb; VH/VL SEQ ID NO 77/78 (antibody, listed as Mus musculus, V domains shown)
VH: MEWRWIFLFLLSGTTGVHSEIQLQQSGPELVKPGASVKVSCKASGYVFTTYSIYWVKQSHGKSLEWIGYIDPYNGDTSYNQKFKGKATLTVDKSSSTAYMHLNSLTSEDSTVYYCAREGNYYGYFDYWGQGTTLTVS
VL: MDFQVQIFSFLLMSASVIMSRGQIVLTQSPALMSASPGEKVTMTCSASSSVSYMFWYQQKPRSSPKPWIYLTSNLASGVPARFSGSGSGTSYSLTISSMEAEDAATYYCQQWTGNPPTFGGGTKLEIK
- IP-10 production in response to polyIC, antibody combined with methotrexate, dexamethasone or Humira (PBMC): reduce IP-10 further
- IP-10 production in response to polyAU, antibody combined with methotrexate, dexamethasone or Humira (PBMC): reduce IP-10 further
- IP-10 production in response to polyIC (PBMC): substantially reduce IP-10 production
- IP-10 production in response to polyAU (PBMC): substantially reduce IP-10 production

B3: 37B7: anti-human TLR3 Ab used in Example 11; VH/VL SEQ ID NO 71/72 (antibody, listed as Rattus norvegicus, V domains shown)
VH: QVQLQQSGTELVKPGSSVKISCKASGYTFTSNYMHWIRQLPGNGLEWIGWIFPGDGDTNYNQKFNGKATLTADKSSSTAYMQLSSLTSEDYAVYFCARSDGDWYFDFWGPGTMVTVSS
VL: DIQMTQSPGSLSASLGETVTIQCQASEDIYSGLAWYQQKPRKSPQLLISAASRLQDGVPSRFSGSGSGTQYSLKISSMQTEDEGVYFCQQGVKYPNTFGPGTKLELK
- IL-6 production by BEAS-2B, anti-TLR3 Ab combined with dexamethasone or budesonide (BEAS-2B cell line; highest anti-TLR3 Ab dose): strong additive inhibition
- block of BEAS-2B IL-6 production (BEAS-2B cell line; highest concentration of anti-TLR3 Ab): ~50%
